Target: Biotinylated Human CD39-His
Assay: MSD equilibrium; Fab

Kd: 0.053 nM
Substance: SRF399-C
